{
  "source": "patent US8911953B2",
  "about": "“TDF-related compounds and analogs thereof, analogs and bioactive fragments” (Thrasos Innovation, Inc., priority 2005, dated 2014)",
  "molecules": {"B1": {"name": "BMP-6: bone morphogenetic protein BMP-6 (Vgr-1) (protein, UniProt P22004 375-513, looked up)", "Bone morphogenetic protein 6": "SASSRRRQQSRNRSTQSQDVARVSSASDYNSSELKTACRKHELYVSFQDLGWQDWIIAPKGYAANYCDGECSFPLNAHMNATNHAIVQTLVHLMNPEYVPKPCCAPTKLNAISVLYFDDNSNVILKKYRNMVVRACGCH"}},
  "key": {"[1]": {"test_system": "LNCaP human prostate cancer cells", "assay": "Smad phosphorylation in LNCaP prostate cancer cells (Western blot)", "type": "cell-based", "settings": "single agent, cultured LNCaP cells", "method": "The detection of Smad phosphorylation by Western analysis, for example in LNCaP (prostate cancer cells) or EC (vascular endothelial cells) in culture medium can be examined after exposure to varying concentrations of TDFRP or control compounds. BMP-7 serves as a positive control. Cells are lysed in RIPA lysis buffer (50 mM Tris-HCl at pH 8.0, 150 mM NaCl, 1% NP-40, 0.5% sodium deoxycholate, 0.1% SDS) containing 1 mM PMSF, 1 mM sodium orthovanadate, and 10 ug/mL proteinase inhibitor cocktail. Lysates are incubated on ice for 15 minutes, centrifuged, and transferred supernatant to a clean tube. 50 to 100 ug is used for analysis by SDS-PAGE. Resolved proteins are electro transferred onto PVDF membrane. The blot is blocked by incubating in 3% non-fat dry milk prepared in PBS at room temperature for 1 hour with constant slow agitation. The blot is incubated with 1-2 ug/mL of primary antibody (rabbit anti-phospho-Smad 1) prepared in PBS-milk, overnight with agitation at 4 degree C., washed twice with PBS, and incubated with secondary antibody (anti rabbit HRP conjugated IgG, 1:3000 dilution) at room temperature for 2 hours with agitation. After washing in PBS-0.05% Tween 20 for 5 minutes and rinsing, Smad phosphorylation is detected via an HRP reaction according to manufacturer's instructions (FIGS. 2, 3, 18, 2X).\nFor detection of Smad phosphorylation by Western analysis, LNCaP (prostate cancer cells) or EC (vascular endothelial cells) in culture medium are exposed to varying concentrations of TDFRP or control compounds. BMP-7 served as a positive control. Cells are lysed in RIPA lysis buffer (50 mM Tris-HCl at pH 8.0, 150 mM NaCl, 1% NP-40, 0.5% sodium deoxycholate, 0.1% SDS) containing 1 mM PMSF, 1 mM sodium orthovanadate, and 10 ug/mL proteinase inhibitor cocktail. Lysates are incubated on ice for 15 minutes, centrifuged, and transferred supernatant to a clean tube. 50 to 100 ug is used for analysis by\nSDS-PAGE. Resolved proteins are electro transferred onto PVDF membrane. The blot is blocked by incubating in 3% non-fat dry milk prepared in PBS at room temperature for 1 hour with constant slow agitation. The blot is incubated with 1-2 ug/mL of primary antibody (rabbit anti-phospho-Smad 1) prepared in PBS-milk, overnight with agitation at 4 degree C., washed twice with PBS, and incubated with secondary antibody (anti rabbit HRP conjugated IgG, 1:3000 dilution) at room temperature for 2 hours with agitation. After washing in PBS-0.05% Tween 20 for 5 minutes and rinsing, Smad phosphorylation is detected via an HRP reaction according to manufacturer's instructions (FIGS. 3, 27).\nBMP signaling molecules co-administered with TDFRP compounds show synergistic or enhanced downstream signaling as detected by Smad phosphorylation. Smad phosphorylation was assessed by Western analysis in LNCaP (prostate cancer cells) or EC (vascular endothelial cells) cells in culture medium exposed to varying concentrations of TDFRP or control compounds. BMP-7 served as a positive control. Cells are lysed in RIPA lysis buffer (50 mM Tris-HCl at pH 8.0, 150 mM NaCl, 1% NP-40, 0.5% sodium deoxycholate, 0.1% SDS) containing 1 mM PMSF, 1 mM sodium orthovanadate, and 10 ug/mL proteinase inhibitor cocktail. Lysates are incubated on ice for 15 minutes, centrifuged, and transferred supernatant to a clean tube. 50 to 100 ug is used for analysis by SDS-PAGE. Resolved proteins are electro transferred onto PVDF membrane. […]"}, "[2]": {"test_system": "LNCaP", "assay": "Cancer cell proliferation, tritiated thymidine incorporation", "type": "cell-based, human", "settings": "LNCaP cultured in vitro", "from_the_text": "(§1) TDFRP Compound Inhibition of LNCaP Cancer Cell Proliferation. BMP-6 and a TDFRP compound (SEQ ID NO:45) inhibited the proliferation of prostate cancer cells (LNCaP and PC-3) cultured in vitro as detected by the incorporation of tritiated thymidine (a measure of cell proliferation.\n(§2) Prostate cancer is one of the most common cancers in men. […] Moreover, it has been shown that BMP signals inhibit the growth and the proliferation of human prostate tumor cells by upregulating the cyclin-dependent kinase inhibitor (CDKI) p21 (CIP1/WAF1) and decreasing the activity of Cdk2, leading to hypophosphorylation of Rb proteins. TDFRP compounds have been screened in in vitro prostate and bladder cancer bioassays to assess growth inhibitory activity of the compounds (FIG. 3). ^3H-thymidine incorporation is used as a marker for cell proliferation activity in human prostate and bladder cancer cell lines. Cisplatin inhibits ^3H-thymidine incorporation, indicating a tumor-growth suppressive activity of cisplatin in both human prostate and bladder cancer cells. TDFRP compounds are assayed in these cancer cells for the ability to induce receptor-regulated Smad 1/5 phosphorylation in a dose-dependent manner (FIG.).\nas §2, with “(FIGS. 3, 28).” for “(FIG. 3).”, “(FIGS. 3, 28).” for “(FIG.).”"}, "[3]": {"test_system": "PC-3", "assay": "Cancer cell proliferation, tritiated thymidine incorporation", "type": "cell-based, human", "settings": "PC-3 cultured in vitro", "from_the_text": "as §1, §2\nas §2, with “(FIGS. 3, 28).” for “(FIG. 3).”, “(FIGS. 3, 28).” for “(FIG.).”"}},
  "note": "“Also recorded” adds a separate entry of the source.",
  "data": [
    {"molecule": "B1", "values": [
      {"measurement": "Smad phosphorylation and activation", "setting": "[1]", "value": "induced; also recorded: Smad 1, 5, 8 phosphorylation and activation"},
      {"measurement": "proliferation (incorporation of tritiated thymidine)", "setting": "[2]", "value": "inhibited"},
      {"measurement": "proliferation (incorporation of tritiated thymidine)", "setting": "[3]", "value": "inhibited"}
    ]}
  ]
}
